From patent US20220105157A1, “Compositions and Methods for Promoting Angiogenesis in the Eye” (The Regents of the University of California, priority 2019, published 2022)

B1: CT-1: cardiotrophin-1, IL-6 family member (protein, UniProt Q16619 1-201, looked up)
Cardiotrophin-1: MSRREGSLEDPQTDSSVSLLPHLEAKIRQTHSLAHLLTKYAEQLLQEYVQLQGDPFGLPSFSPPRLPVAGLSAPAPSHAGLPVHERLRLDAAALAALPPLLDAVCRRQAELNPRAPRLLRRLEDAARQARALGAAVEALLAALGAANRGPRAEPPAATASAASATGVFPAKVLGLRVCGLYREWLSRTEGDLGQLLPGGSA
B2: PRDX-1: recombinant human Peroxiredoxin 1 (protein, UniProt Q06830 2-199, looked up)
Peroxiredoxin-1: SSGNAKIGHPAPNFKATAVMPDGQFKDISLSDYKGKYVVFFFYPLDFTFVCPTEIIAFSDRAEEFKKLNCQVIGASVDSHFCHLAWVNTPKKQGGLGPMNIPLVSDPKRTIAQDYGVLKADEGISFRGLFIIDDKGILRQITVNDLPVGRSVDETLRLVQAFQFTDKHGEVCPAGWKPGSDTIKPDVQKSKEYFSKQK
B3: OSM: oncostatin M, IL-6 family member (protein, UniProt P13725 26-221, looked up)
Oncostatin-M: AAIGSCSKEYRVLLGQLQKQTDLMQDTSRLLDPYIRIQGLDVPKLREHCRERPGAFPSEETLRGLGRRGFLQTLNATLGCVLHRLADLEQRLPKAQDLERSGLNIEDLEKLQMARPNILGLRNNIYCMAQLLDNSDTAEPTKAGRGASQPPTPTPASDAFQRKLEGCRFLHGYHRFMHSVGRVFSKWGESPNRSRR

Assays:
[1] = test system: choroid capillaries of NaIO3-treated mice; assay: Sodium iodate (NaIO3) model, choroid capillary recovery; type: in vivo, mouse; details: NaIO3 20 mg/kg i.v.; intravitreal LIF 50 ng, CT-1 different doses, OSM 10 ng; OCT-A
Procedure: Eight-week-old C57BL/6J mice were anesthetized with ketamine/xylazine cocktail. Sterilized NaIO3 was administered as a single intravenous injection (20 mg/kg body weight) (28) (29). Control mice were injected with PBS. PBS, LIF (50 ng), CT-1 (different doses) or OSM (10 ng) was injected intravitreally in five-mice groups. Five, seven and nine days after injection, choroid capillaries were monitored by OCT-A system. 9 days after injection, mice were killed and eyes were harvested for H&E and immunofluorescent staining. Avascular area in choroid capillaries was analyzed using ImageJ.

[2] = test system: retinal vasculature of mouse eyes; assay: Intravitreal injection of recombinant proteins in mouse eyes, retinal vessel density; type: in vivo; details: mice, intravitreal
Procedure: Male C57BL/6J mice (6-8 week and P5) were anesthetized with ketamine/Xylazine cocktail. The indicated amounts of recombinant LIF (Sigma, CAT #SRP9001) in 1 μl of PBS and PBS vehicle control were injected intravitreally with a 33-gauge Hamilton syringe. Seven (for adult mice) or 3 (for neonatal mice) days after injection, animals were euthanized, eyes were then enucleated and fixed in 4% paraformaldehyde (PFA) for 15 min. Choroid-sclera complexes and retinas were separated and anti-CD31 immunofluorescence (IF) or lectin labeling was performed to evidence the vasculature by whole mount staining of both retina and choroidal tissues or flat-mounts of retina. For CD31 IF, rat anti-mouse antibody (BD Biosciences, CAT #550274) was diluted 1:100 and incubated overnight at 4° C. After 4-hour incubation with the Alexa Fluor-488-conjugated anti-rat antibody (Life Technologies, CAT #A11006), whole mounts were imaged via the 488 nm channel using Keyence Microscope BZ-X710 (Keyence Corporation, Osaka, Japan) or A1R Confocal STORM super-resolution system (Nikon). For lectin staining, Dylight-488-labeled lectin (Vector Laboratories, CAT #DL-1174) was diluted at 1:200 and images were obtained using A1R Confocal STORM super-resolution system (Nikon). For Quantification of vascular density in choroids and retina was carried out by Image J. Student's t test was used for statistical analysis. […]
Optical coherence tomography angiography (OCTA) imaging of the retina of adult mice was performed 7 days after LIF injection, using a 1300 nm optical coherence tomography (OCT) system developed by Dr. R. K. Wang's group at University of Washington Seattle, in agreement with previously described methodology (66). […] To quantify the retinal vascular density, retinal and choroidal layers in 3D structure OCT scans were separated by the hyper-reflecting retinal pigment epithelium (RPE). […] The vessel density was then determined by calculating the percentages of vessel-covered area in total area of view using the ImageJ software.

[3] = test system: bovine choroidal endothelial (BCE) cells; assay: BCE endothelial cell proliferation assay (alamar blue); type: cell-based; set-up: key to BCE cell growth normalized to the vehicle control group: ns, not statistically significant; details: for BCE cell growth normalized to the vehicle control group: day 6, n = 3
Procedure: The bovine endothelial proliferation assays were performed essentially as previously described (63, 64). BCE (1×10^3 cells/well) or BRE (5×10^2 cells/well) cells were seeded in 96-well plates in the culture medium (DMEM-low glucose supplemented with 10% BCS, 2 mM glutamine and antibiotics) plus testing materials with a total volume of 200 μl per well. BAE cells were plated in 96-well plates at a density of 2×10^3 cells in the culture medium (DMEM-low glucose supplemented with 1% BCS and antibiotics) plus testing material with a total volume of 200 μl per well. HRME cells were seeded at a density of 1×10^3 cells/well in gelatin-coated 96-well plates in assay medium (DMEM-low glucose supplemented with 20% FBS and antibiotics) plus testing materials to make a total volume 200 μl per well. For assays involving antibodies or small-molecule inhibitors, inhibitors or vehicle controls were first added and then test materials were added one hour later. After 6 days (unless otherwise specified), cells were incubated with alamar blue for 4 h. Fluorescence was measured at 530 nm excitation wavelength and 590 nm emission wavelength. Each experiment was carried out in duplicate/triplicate and repeated at least three times.

Molecule | avascular areas in choroid compared to PBS group [1] | increase in retinal density ([2]; 20 ng) | increase in retinal density ([2]; 100 ng) | stimulation of BCE cell growth (mitogenic activity) [3] | BCE cell growth normalized to the vehicle control group ([3]; 3 ng/ml) | BCE cell growth normalized to the vehicle control group ([3]; 10 ng/ml) | BCE cell growth normalized to the vehicle control group ([3]; 30 ng/ml) | BCE cell growth normalized to the vehicle control group ([3]; 100 ng/ml) | BCE cell growth normalized to the vehicle control group ([3]; 300 ng/ml) | BCE cell growth normalized to the vehicle control group ([3]; 1000 ng/ml) | vascular density in the retina [2]
B1 | reduced avascular areas | approximately 30% | ~50% | – | – | – | – | – | – | – | –
B2 | – | – | – | had no effect | ns | ns | ns | ns | ns | ns | –
B3 | larger than in the PBS group | – | – | – | – | – | – | – | – | – | vascular density decreased
